The source of these data is publication PMC10995880 (iScience, 2024).

This assay addresses His6-PEX19-WT (1–299 aa), non-farnesylated (human, UniProt P40855 1-299). Put plainly: pull-down; His6-PEX19 pull-down of Flag-PEX3ΔN variants at the same concentrations of PEX19 and PEX3 as in the PEX26^Bpa crosslinking experiments (400 nM). The conditions noted are these: both partners purified.

Positions count from the first letter of the chain named. Numbers in names are those of the source.

His6-PEX19-WT (1–299 aa), non-farnesylated, sequence (P40855 whole entry, the tested form may be a part): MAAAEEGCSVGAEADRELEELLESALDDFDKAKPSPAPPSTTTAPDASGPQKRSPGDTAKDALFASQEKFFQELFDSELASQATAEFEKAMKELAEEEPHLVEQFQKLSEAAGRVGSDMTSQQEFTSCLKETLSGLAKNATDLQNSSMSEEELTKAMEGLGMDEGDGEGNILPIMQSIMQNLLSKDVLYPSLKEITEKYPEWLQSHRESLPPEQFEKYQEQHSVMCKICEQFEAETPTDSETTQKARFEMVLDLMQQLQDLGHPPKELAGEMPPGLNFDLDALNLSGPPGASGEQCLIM

B1: Flag-PEX3ΔN-G138E (domain or fragment, UniProt P56589 41-373, looked up)
chain: QEREAAEYIAQARRQYHFESNQRTCNMTVLSMLPTLREALMQQLNSESLTALLKNRPSNKLEIWEDLKIISFTRSTVAVYSTCMLVVLLRVQLNIIGEYIYLDNAAVGKNGTTILAPPDVQQQYLSSIQHLLGDGLTELITVIKQAVQKVLGSVSLKHSLSLLDLEQKLKEIRNLVEQHKSSSWINKDGSKPLLCHYMMPDEETPLAVQACGLSPRDITTIKLLNETRDMLESPDFSTVLNTCLNRGFSRLLDNMAEFFRPTEQDLQHGNSMNSLSSVSLPLAKIIPIVNGQIHSVCSETPSHFVQDLLTMEQVKDFAANVYEAFSTPQQLEK
Regarding B1, the binding result is given as “binds”.

B2: Flag-PEX3ΔN-M72K (domain or fragment, UniProt P56589 41-373, looked up)
chain: B1 chain with M32K, E98G
For the molecule B2, the binding result was “binds”.
